This is an account of results in PMC3680789.

The data set deals with T1, ScPif1 (Saccharomyces cerevisiae, UniProt P07271 40-859).
T1 sequence: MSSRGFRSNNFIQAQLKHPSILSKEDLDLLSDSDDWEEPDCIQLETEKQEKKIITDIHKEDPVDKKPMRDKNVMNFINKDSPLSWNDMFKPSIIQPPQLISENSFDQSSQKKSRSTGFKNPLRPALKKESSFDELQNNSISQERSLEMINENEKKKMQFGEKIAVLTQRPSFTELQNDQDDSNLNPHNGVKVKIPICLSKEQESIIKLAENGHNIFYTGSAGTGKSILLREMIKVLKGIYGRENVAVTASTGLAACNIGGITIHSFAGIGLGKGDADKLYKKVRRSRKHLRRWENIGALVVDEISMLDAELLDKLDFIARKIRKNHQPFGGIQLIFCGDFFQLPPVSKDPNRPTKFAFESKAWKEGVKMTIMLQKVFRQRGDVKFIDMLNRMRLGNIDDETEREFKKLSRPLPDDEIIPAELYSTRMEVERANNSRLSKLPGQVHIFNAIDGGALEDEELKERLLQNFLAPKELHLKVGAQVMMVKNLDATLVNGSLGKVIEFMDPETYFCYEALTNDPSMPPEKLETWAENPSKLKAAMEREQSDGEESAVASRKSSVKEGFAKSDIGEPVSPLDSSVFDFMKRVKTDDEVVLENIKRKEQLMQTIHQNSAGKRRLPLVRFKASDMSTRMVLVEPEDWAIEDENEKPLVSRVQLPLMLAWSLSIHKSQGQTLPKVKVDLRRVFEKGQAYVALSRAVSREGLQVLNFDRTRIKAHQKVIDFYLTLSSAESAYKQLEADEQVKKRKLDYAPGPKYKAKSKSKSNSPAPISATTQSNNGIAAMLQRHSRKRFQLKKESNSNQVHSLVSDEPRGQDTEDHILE
The data set can be described thus: filter binding.

Broadly, the Kd is the constant that tells how readily two partners part at equilibrium. In the case of CAAAGGACCCTTTGTGGATC (ssDNA) [non-G-rich 20-mer (NG)], the Kd was 0.2 nM. In the case of CGGCCCGGCGGTCCGCGGTC (ssDNA) [G-rich 20-mer (GR)], the Kd came to 0.04 nM.
